Positions count from the first letter of the chain named. Where “and” joins values, the source holds several entries; their conditions need not be identical. Equal entries are not always repeated. Where two headings read alike, the source gives them in different places.
What was measured:
[1] = biological target: T1, Cynomolgus monkey CD38 (on T cells) (Cynomolgus monkey, UniProt Q5VAN0 1-301); experiment: flow cytometry titration on cynomolgus T cells, gated on CD4-positive and on CD8-positive cells
T1 construct: whole, on cells; also called cyno CD38
Protocol: (§1) Unbound primary antibody was removed by washing followed by staining with a secondary antibody (5 μg/ml) 30 minutes on ice. All samples were stained in triplicates with appropriate CD3, CD4 and CD8 cross-reactive antibodies. Samples were measured by flow cytometry. For data analysis live cells were gated using FSC vs SSC parameters during sample acquisition. Mean fluorescence intensities (MFI) of stained cells were plotted on an XY chart, graphing MFI against the log of the concentration and the data fit to a non-linear regression curve from which the EC50 was calculated.

[2] = biological target: T2, human CD38 (full length, on cells) (human, UniProt P28907 1-300); experiment: flow cytometry titration on human cells, gated on CD8-positive cells
T2 construct: Endogenous on Daudi, Raji, Jurkat cells, human PBMC/T cells; full-length CD38 expressed in HEK-293T cells for alanine scanning; also called Uniprot P28907
Protocol: as §1

[3] = biological target: T3, recombinant human CD38 his tagged (extracellular domain) (human, UniProt P28907 43-300); experiment: SPR Biacore 2000; IgG1 captured, rhCD38-his as analyte
T3 construct: also called rhCD38; rhCD38-his; not shown: Histidine tag

[4] = biological target: T2, human CD38 (full length, on cells); experiment: cell-based or functional assay
[5] = biological target: T2, human CD38 (full length, on cells); experiment: flow cytometry titration on human cells, gated on CD4-positive cells
Protocol: as §1

[6] = biological target: T3, recombinant human CD38 his tagged …; experiment: Octet BLI, avidity; rhCD38-his on Ni-NTA sensor, IgG1 in solution
Protocol: Avidity binding measurements of anti-CD38 Antibodies: Ni-NTA sensors were equilibrated off-line in assay buffer for 30 minutes and then monitored on-line for 60 seconds for baseline establishment. […] Then the antibody was associated at different concentrations (as described in FIGS. 25 and 30) for 30-50 minutes. Afterwards they were transferred to assay buffer for 20-30 min for off-rate measurement. Kinetics data were fit using a 1:1 binding model in the data analysis software provided by ForteBio.

[7] = biological target: T2, human CD38 (full length, on cells); experiment: cell-based or functional assay; remark: listed apart in the source
[8] = biological target: T3, recombinant human CD38 his tagged …; experiment: Octet BLI, affinity, monovalent human CD38-HIS; yeast produced
[9] = biological target: T3, recombinant human CD38 his tagged …; experiment: Octet BLI affinity, rhCD38
[10] = biological target: T3, recombinant human CD38 his tagged …; experiment: SPR Biacore affinity, rhCD38-his
Protocol: (§2) Anti-human antibody was initially immobilised across all flow cells in analysis buffer (pH 7.4, 10mM HEPES, 150mM NaCl, 3mM EDTA, 0.05% Tween 20) to an RU of between 12,000-14,000 over 10 minutes. […] Dissociation was performed in analysis buffer over 10 minutes. Regeneration steps between sample concentrations were performed in 3M MgCl₂, three times for 0.5 minutes. A flow rate of 25 μl/min was maintained throughout the process. Kinetics data were fit using a global fit on the analysis software provided by Biacore with reference subtraction.

[11] = biological target: T1, Cynomolgus monkey CD38 (on T cells); experiment: flow cytometry titration on cynomolgus T cells, gated on CD4-positive cells
[12] = biological target: T2, human CD38 (full length, on cells); experiment: flow cytometry titration on human PBMC, gated on CD4-positive cells
[13] = biological target: T2, human CD38 (full length, on cells); experiment: cell-based or functional assay; remark: listed apart in the source
[14] = biological target: T2, human CD38 (full length, on cells); experiment: cell-based or functional assay; remark: listed apart in the source
[15] = biological target: T2, human CD38 (full length, on cells); experiment: flow cytometry, binding to Daudi cells
[16] = biological target: T1, Cynomolgus monkey CD38 (on T cells); experiment: flow cytometry titration on cynomolgus T cells, gated on CD8-positive cells
[17] = biological target: T3, recombinant human CD38 his tagged …; experiment: Octet BLI, affinity, monovalent human CD38-HIS; IgG1
[18] = biological target: T2, human CD38 (full length, on cells); experiment: flow cytometry titration on human PBMC, gated on CD8-positive cells
[19] = biological target: T3, recombinant human CD38 his tagged …; experiment: Octet BLI, affinity, monovalent human CD38-HIS; IgG4
[20] = biological target: T2, human CD38 (full length, on cells); experiment: flow cytometry, binding to Daudi cells; remark: listed apart in the source
[21] = biological target: T3, recombinant human CD38 his tagged …; experiment: Octet BLI affinity, rhCD38; remark: listed apart in the source
[22] = biological target: T3, recombinant human CD38 his tagged …; experiment: SPR Biacore affinity, rhCD38-his; remark: listed apart in the source
Protocol: as §2

[23] = biological target: T2, human CD38 (full length, on cells); experiment: cell-based or functional assay; remark: listed apart in the source
[24] = biological target: T3, recombinant human CD38 his tagged …; experiment: summary, human CD38 extracellular protein

T1 sequence (Q5VAN0 whole entry): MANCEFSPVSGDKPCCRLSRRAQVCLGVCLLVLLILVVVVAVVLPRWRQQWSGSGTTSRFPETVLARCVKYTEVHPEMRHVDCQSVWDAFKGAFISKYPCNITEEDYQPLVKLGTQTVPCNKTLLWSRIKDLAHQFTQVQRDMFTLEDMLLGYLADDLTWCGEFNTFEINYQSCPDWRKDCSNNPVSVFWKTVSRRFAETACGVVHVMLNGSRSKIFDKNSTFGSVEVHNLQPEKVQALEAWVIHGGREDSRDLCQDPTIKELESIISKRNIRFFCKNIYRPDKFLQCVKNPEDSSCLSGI

B1: aCD38-a-306 (human IgG1) (antibody, V domains shown)
VH: not shown
VL: DIQMTQSPSSLSASVGDRVTITCRASQSISSYLNWYQQKPGKAPKLLIYGASSLQSGVPSRFSGSGSGTDFTLTISSLQPEDFATYYCQQRSSTPITFGGGTKVEIK
notes: Human IgG1
[1]
  binding result: no binding (tested: about 20 µg/ml (log 1.3))
[2]
  EC50 (read off the curve): ~0.2 µg/mL
[3]
  Kd: 1.2 nM
[4]
  ADCC EC50, Daudi target cells: 0.0013 µg/mL
  ADCC max. lysis, Daudi target cells: 43%
[5]
  EC50 (read off the curve): ~0.4 µg/mL
[6]
  Kd: 0.0735 nM
[7]
  CDC EC50, Daudi cells, 10% complement: 0.19 µg/mL
  CDC max. lysis, Daudi cells, 10% complement: 16.9%

B2: aCD38-a-306 (yeast produced) (antibody, V domains shown)
VH: not shown
VL: B1 VL
[8]
  Kd: 48 nM

B3: aCD38-b-348 (human IgG1) (antibody, V domains shown)
VH: QLQLQESGPGLVKPSETLSLTCTVSGGSISSSDYYWGWIRQPPGKGLEWIGSIYYSGSTYYNPSLKSRVTISVDTSKNQFSLKLSSVTAADTAVYYCARGQYSSGWYAYPFDMWGQGTMVTVSS
VL: EIVLTQSPGTLSLSPGERATLSCRASQSVRSSYLAWYQQKPGQAPRLLIYGASSRATGIPDRFSGSGSGTDFTLTISRLEPEDFAVYYCQQDGNVYTFGGGTKVEIK
notes: Human IgG1
[3]
  Kd: 2 nM
[4]
  ADCC EC50, Daudi target cells: 0.00032 µg/mL and 0.0008 µg/mL and 0.00042 µg/mL
[9]
  Kd: 5.79 nM
[10]
  Kd: 2 nM
[11]
  EC50 (read off the curve): ~0.7 µg/mL
[12]
  EC50 (read off the curve): ~0.4 nM
[6]
  Kd: 0.177 nM
[13]
  ADCC target lysis EC50: 0.0059 µg/mL
  ADCC target lysis, max. % lysis: 44%
[14]
  CDC EC50, Raji cells, 10% complement: 0.3 µg/mL
  CDC EC50, Raji cells, 10% complement (repeat): 0.17 µg/mL
[15]
  EC50: 0.341 µg/mL
  Max MFI: 2320 MFI
[7]
  CDC EC50, Daudi cells, 10% complement: 0.17 µg/mL and 0.34 µg/mL and 0.26 µg/mL
[16]
  EC50 (read off the curve): ~0.8 µg/mL
[17]
  Kd: 8.81 nM
[18]
  EC50 (read off the curve): ~0.4 nM

B4: aCD38-b-348 (IgG4) (antibody, V domains shown)
VH: B3 VH
VL: B3 VL
[19]
  Kd: 9.24 nM

B5: aCD38-b-329-m7 (antibody, IgG1, V domains shown)
VH: B3 VH
VL: B3 VL with G93S, N94A, Y96F
[20]
  EC50: 0.745 µg/mL
  Max MFI: 2210 MFI
[21]
  Kd: 26 nM
[22]
  Kd: 4.9 nM
[23]
  ADCC target lysis EC50: 0.0035 µg/mL
  ADCC target lysis, max. % lysis: 43%

B6: aCD38-b-348-m1 (antibody, IgG1, V domains shown)
VH: B3 VH
VL: B3 VL with D92E, G93A
notes: also called aCD38-b-348-ml
[9]
  Kd: 24.7 nM
[10]
  Kd: 63 nM
[13]
  ADCC target lysis EC50: 0.0028 µg/mL
  ADCC target lysis, max. % lysis: 38%
[15]
  EC50: 0.485 µg/mL
  Max MFI: 1610 MFI

B7: aCD38-b-348-m3 (antibody, IgG1, V domains shown)
VH: B3 VH
VL: B3 VL with G93A
[9]
  Kd: 55.1 nM
[10]
  Kd: 28 nM
[13]
  ADCC target lysis EC50: 0.0043 µg/mL
  ADCC target lysis, max. % lysis: 39%
[15]
  EC50: 0.558 µg/mL
  Max MFI: 2100 MFI

B8: aCD38-b-348-m4 (antibody, IgG1, V domains shown)
VH: B3 VH
VL: B3 VL with D92E
[9]
  Kd: 70.1 nM
[10]
  Kd: 27 nM
[13]
  ADCC target lysis EC50: 0.0014 µg/mL
  ADCC target lysis, max. % lysis: 38%
[15]
  EC50: 0.299 µg/mL
  Max MFI: 2020 MFI

B9: aCD38-b-348-m2 (antibody, IgG1, V domains shown)
VH: B3 VH
VL: B3 VL with G93S
[9]
  Kd: 39.9 nM
[10]
  Kd: 6.8 nM
[13]
  ADCC target lysis EC50: 0.0025 µg/mL
  ADCC target lysis, max. % lysis: 44%
[15]
  EC50: 0.499 µg/mL
  Max MFI: 2220 MFI

B10: aCD38-b-329-m6 (antibody, IgG1, V domains shown)
VH: B3 VH
VL: B3 VL with G93E, N94A, Y96F
[20]
  EC50: 0.651 µg/mL
  Max MFI: 2300 MFI
[21]
  Kd: 19.9 nM
[22]
  Kd: 4.7 nM
[23]
  ADCC target lysis EC50: 0.0024 µg/mL
  ADCC target lysis, max. % lysis: 47%

B11: aCD38-a-327 (human IgG1) (antibody, V domains shown)
VH: QVQLQESGPGLVKPSQTLSLTCTVSGGSISSGGYYWSWIRQHPGKGLEWIGYIYYSGSTYYNPSLKSRVTISVDTSKNQFSLKLSSVTAADTAVYYCARAKSELVLPYYYYMDVWGKGTTVTVSS
VL: not shown
notes: Human IgG1
[3]
  Kd: 1 nM
[4]
  ADCC EC50, Daudi target cells: 0.03 µg/mL
  ADCC max. lysis, Daudi target cells: 55%
[6]
  Kd: 0.0181 nM
[24]
  Kd: ~1 nM
[17]
  Kd: 2.3 nM

B12: aCD38-a-327 (IgG4) (antibody, V domains shown)
VH: B11 VH
VL: not shown
[19]
  Kd: 2.99 nM

Source: US20200190209A1 (BLACK BELT THERAPEUTICS, published 2020)
